Measured values published in US20190083583A1 (Alexion, published 2019).

Target: M6P receptor on the surface of human MPS IIIB skin fibroblasts (human)
Experiment: cell-based or functional assay

NaGlu enzymatic activity in human MPS IIIB fibroblasts after 24 h with 0.3 ug/mL rhNaGlu (cellular uptake): ~50 % of wild-type fibroblast activity | NaGlu enzymatic activity in human MPS IIIB fibroblasts after 24 h with 1 ug/mL rhNaGlu (cellular uptake): ~4 fold of wild-type fibroblast activity | NaGlu enzymatic activity in human MPS IIIB fibroblasts after 24 h with 30 ug/mL rhNaGlu (cellular uptake): ≥ 40 fold of wild-type fibroblast activity
B1: recombinant human N-acetyl-alpha-D-glucosaminidase (rhNaGlu) produced in transgenic avian (Gallus) egg white (enzyme)
chain: DEAREAAAVRALVARLLGPGPAADFSVSVERALAAKPGLDTYSLGGGGAARVRVRGSTGVAAAAGLHRYLRDFCGCHVAWSGSQLRLPRPLPAVPGELTEATPNRYRYYQNVCTQSYSFVWWDWARWEREIDWMALNGINLALAWSGQEAIWQRVYLALGLTQAEINEFFTGPAFLAWGRMGNLHTWDGPLPPSWHIKQLYLQHRVLDQMRSFGMTPVLPAFAGHVPEAVTRVFPQVNVTKMGSWGHFNCSYSCSFLLAPEDPIFPIIGSLFLRELIKEFGTDHIYGADTFNEMQPPSSEPSYLAAATTAVYEAMTAVDTEAVWLLQGWLFQHQPQFWGPAQIRAVLGAVPRGRLLVLDLFAESQPVYTRTASFQGQPFIWCMLHNFGGNHGLFGALEAVNGGPEAARLFPNSTMVGTGMAPEGISQNEVVYSLMAELGWRKDPVPDLAAWVTSFAARRYGVSHPDAGAAWRLLLRSVYNCSGEACRGHNRSPLVRRPSLQMNTSIWYNRSDVFEAWRLLLTSAPSLATSPAFRYDLLDLTRQAVQELVSLYYEEARSAYLSKELASLLRAGGVLAYELLPALDEVLASDSRFLLGSWLEQARAAAVSEAEADFYEQNSRYQLTLWGPEGNILDYANKQLAGLVANYYTPRWRLFLEALVDSVAQGIPFQQHQFDKNVFQLEQAFVLSKQRYPSQPRGDTVDLAKKIFLKYYPRWVAGSW
modifications: N-linked glycans carrying mannose-6-phosphate (3.2 moles of M6P per mole of protein), mannose and GlcNAc; sites not stated
